Measured values from US20110314564A1, “ENZYMES AND METHODS FOR HYDROLYSING PHENYLUREAS, CARBAMATES AND ORGANOPHOSPHATES” (priority 2008, published 2011).

What was measured:
[1] = test system: Mycobacterium brisbanense strain JK1; assay: Degradation of diuron and accumulation of DCA in liquid culture; assay type: cell-based; conditions: alternate nitrogen source present
Method: MM (50 mL) supplemented with 10 mM glucose, 0.13 mM diuron and 18.7 mM ammonium chloride (as required) were inoculated with 0.2% of a homogeneous suspension of freshly grown M. brisbanense strain JK1 cells (0D600=˜10). Cultures were incubated at 28° C. with shaking at 200 rpm, in the dark. Samples were taken at ˜24 hour intervals, and metabolites were extracted in 50% acetonitrile, filtered and analysed by HPLC.

[2] = neutral buffer; estimated from the work of Salvestrini et al. (2002); cited from earlier work
[3] = molecular target: PuhB (Mycolicibacterium brisbanense, UniProt B8R4K0); assay: Hydrolysis of phenylurea, carbamate and organophosphate substrates by purified PuhB (LCMS / FBBS / A400 assays); conditions: PuhB
[4] = Activity of native PuhA and PuhB at each purification step (DCA formation); assay type: biochemical
Source text: (§1) Protein concentration was estimated using the Bio-rad protein assay (Bradford), with bovine serum albumin used as standard. Protein purity was monitored using sodium dodecyl sulphate-polyacrylamide gel electrophoresis (SDS-PAGE) stained with Coomassie brilliant blue. Where PuhA and B concentrations were estimated in semi purified extracts, SDS-PAGE gels were scanned using Labscan v5 (Amersham Biosciences) and band densitometry performed with Total lab TL100 (Nonlinear dynamics). Talon cobalt resin (BD Biosciences) was used for the purification of hexa-histidine tagged protein. Untagged protein was purified by ammonium sulfate (AS) precipitiation followed by hydrophobic interaction chromatography (HIC; Phenylsepharose), anion exchange chromatography (AEX; Macro Q) and size exclusion chromatography (SEC; Superose 6 or Sephadex 200). All columns were purchased from GE Healthcare. The hydrophobic interaction column was equilibrated with Tris (pH 8)/1 M ammonium sulfate and bound protein was then eluted with Tris (pH 8) over 400 mL. Protein was bound to the anion exchange column with Tris (pH 8) and eluted with a gradient of Tris (pH 8)/1 M NaCl over 500 mL. The buffer was exchanged to 25 mM HEPES/50 mM KCl (pH 8) during SEC and the protein was stable in this buffer at 4° C. for several weeks. The oligomeric structure was estimated with a Superose 6 size exclusion column calibrated with the following protein standards (kDa): thyroglobulin (669), ferritin (440), catalase (232) and aldolase (158). Standard tryptic peptide mass fingerprinting was used to confirm the identity of proteins excised from polyacrylamide gels by liquid chromatography electro spray ionisation mass spectroscopy/mass spectroscopy (LC ESI MS/MS) ion trap following the method of Campbell et al. (2008).

[5] = Activity of PuhA and PuhB expressed in M. smegmatis at each purification step (PNP release); assay type: biochemical
Method: (§2) Pwo polymerase (Roche) and restriction enzymes NdeI, BamHI and HindIII (Fermentas) were used following manufacturers' protocols. Electro-competent E. coli strains JM109 (Promega) were utilised for transformation of ligation reactions (using Promega ligase). Protein expressions in E. coli were inoculated (1% v/v) with an overnight seed culture in LB and then incubated with shaking at 20° C. for 11 hours followed by induction with 0.1 mM isopropyl-β-D-thiogalactopyranoside (IPTG) for 3 hours. M. smegmatis expressions were amended with 0.05% tween 80 and grown in LB at 28° C. for 2-4 days with no induction. Clarified cell-free extracts were obtained by resuspending the bacteria in 25 mM Tris (pH 8) followed by 3 passes through a French pressure cell (Thermo) and centrifugation at 27,000 g (Beckman Avanti).
as §1

[6] = Diuron hydrolase activity in the soluble fraction of recombinant expression hosts; assay type: biochemical
Source text: PuhA and PuhB were amplified as N-hexa-histidine tagged fusions from pET14b (Novagen) in E. coli rosetta II cells (Novagen) and pMV261 (Stover et al., 1991) in M. smegmatis mc2. Protein without hexa-histidine tags was later expressed in M. smegmatis mc2. The PCR primers used in these cloning procedures are noted in Table 2 (SEQ ID NOs 5 to 13).
as §2

[7] = Thermal stability: residual activity after 10 minutes pre-incubation, Boltzmann fit; assay type: biochemical; conditions: for residual activity after incubation (in words): 10 minutes incubation at 40° C.; for Tm indicating 50% activity retained: 10 minutes pre-incubation, then 1 hour assay at 25° C.
Method: (§3) The influence of solvents (acetonitrile and methanol) was examined by using 7 concentrations from 0.4-18.2% over 1 hour duplicate assays with 77 μM diuron and monitored by LCMS. The effect of temperature on the activity of the enzymes was determined in two ways: firstly, the temperature at which reaction was catalysed was controlled at 12 temperatures ranging from 2-60° C. with 154 μM diuron; secondly, enzyme was preincubated at 6 temperatures from 30-55° C. for 10 minutes prior to 1 hour assays at 25° C. The residual activity data was obtained by LCMS and fitted to the Boltzmann function (eq 1)
(§4) A bell shaped model (eq 2)

[8] = Stability in the presence of the solvents acetonitrile and methanol; assay type: biochemical; conditions: 1-18% v/v solvent
Method: as §3

[9] = pH dependence of kcat, kcat/Km and Km with diuron in constant ionic strength buffer; assay type: biochemical; conditions: for pKe1 / pKes1: acidic shoulder; for pKe2 / pKes2: basic shoulder; for pKe of the decrease in catalytic efficiency: basic side
Source text: as §4
(§5) was used to fit an activity y, either log(kcat) and log(kcat/Km) vs. pH. (y)^max is the plateau value and pKa^1 and pKa^2 are the apparent pKa values for the acidic and basic groups, respectively. Equations were fitted to the data using Kaleidagraph v3.6 (Synergy Software). The substrate pKa values were obtained via an online database www.syrres.com/esc/physdemo.htm (Syracuse Research Corporation).

[10] = Bronsted plots (pKa of leaving group vs log kcat) for N-dimethyl phenylureas; assay type: biochemical; conditions: slope between pKa 4-5
Source text: as §5

[11] = expressed in E. coli Rosetta 2 DE3 from pET14b
[12] = expressed in M. smegmatis from pMV261

CN(C)C(=O)Nc1ccc(Cl)c(Cl)c1 [diuron, N′-3,4-dichlorophenyl N-dimethylurea]
degradation of diuron (loss of diuron, accumulation of DCA) [1]: degradation of diuron was confirmed | knon [2]: 2.8e-10 s⁻¹ | kcat [3]: 0.48 s⁻¹ | rate enhancement kcat/knon ([3]; diuron): 1.7×10^9

B1: PuhA: phenylurea hydrolase from A. globiformis D47, amino acid sequence SEQ ID NO:3 (protein)
chain: MTTTAITDITLIDGRGGAPERGVTVLVDEDRFSAIGPTATTPIPDGARVVGGAGRWMVPGYVNGNVHLLDAWMFMVGPGTIEYLARWEGRYVEVIEEAAQLVLRNGVTTVFDTYNAIEPVLAARDRINAGTSAGARIFAAGTIVGLGGPFSADFHFIGQQAASRTFVNRIDAMFEAGVGHQLSLLPRNEVRSRVRDYLARGVDMLKIAVSDHIVFTVGFDRSCQTFSRPVLEVMFEEARAAGVPVLTHSVSVEALDTSVDLGADVLIHANYTLGQHIPDYLIDKIAASDSYAGLQTVHHEHREGLERVGSWAATLAGEPYASNERALIRAKAKILMNTDAGCPSKDHLADLSPAEREDRPWTIGGDHFHWTQSIVEKGMTPLEAISAATLNVARAYGKDADIGSVETGKLADFVLLDADPTADIRHLRSISAVYQAGVAVDRGALPTTPLVTAHPA
modifications: Arthrobacter globiformis D47
Activity (nmol DCA/μg/hour) ([4]; AS (ammonium sulfate)): 0.18 nmol DCA/μg/hour | Activity (nmol DCA/μg/hour) ([4]; CFE (cell free extract)): 0.05 nmol DCA/μg/hour | Activity (nmol DCA/μg/hour) ([4]; HIC): 0.73 nmol DCA/μg/hour | Estimated specific activity (mol/mol/min) ([4]; HIC): 10.20 mol/mol/min | Activity (nmol DCA/μg/hour) ([4]; SEC): 2.79 nmol DCA/μg/hour | Estimated specific activity (mol/mol/min) ([4]; SEC): 7.02 mol/mol/min | Activity (mM PNP/mg/min) ([5]; AEX): 6.2 mM PNP/mg/min | Activity (mM PNP/mg/min) ([5]; CFE): 0.3 mM PNP/mg/min | Activity (mM PNP/mg/min) ([5]; HIC): 4.3 mM PNP/mg/min | Activity (mM PNP/mg/min) ([5]; SEC): 7.8 mM PNP/mg/min | specific activity in the soluble fraction, fold lower compared to the native expression [6, 11]: ~10 fold | activity in the soluble fraction (in words) [6, 12]: comparable to that measured in the native expressions | residual activity after incubation (in words) [7]: retaining significant activity | Tm indicating 50% activity retained [7]: 46.6 °C | activity in the presence of methanol and acetonitrile (in words) [8]: significantly inhibited | pKe1 [9]: 4.2 | pKes1 [9]: 5.1 | pKe2 [9]: 8.9 | pKes2 [9]: 10.2 | pKe of the decrease in catalytic efficiency [9]: ~10 | βlg [10]: −1.6

B2: PuhB: phenylurea hydrolase from Mycobacterium brisbanense JK1, amino acid sequence SEQ ID NO:1 (protein)
chain: MSTIAITNVTLIDGLGGLPRPATTVIVEGDRFATVGPSDSTPVPEGATVVDGNRRWMVPGYVNGNVHLLDAWMFMAGPGTIEYLARWEGRYVEVIEEAAQLALRNGVTTVFDTHNAIEPVLAARDRINAGISQGARIFAAGTIVGMGGPFSADFHFAGRTAATRTFVDRIDSMFEAGVGHQLSLLPRKEVRARVRDYLSRGVDMLKIAVSDHIVFTLVDRSVGFDRSYQTFSRPVLEVMVEEARAAGVPVLTHSVSVEALDTSVELGADVLIHANYTLGQEIPNYLIDKIVASDSWAGLQTVHDQHRQGLEDVGSWAAALAGEPYATNERNLISANAKILLNTDAGCPSKDHLADLSPVEREDRPWTIGNDHFHWTQSMVEKGMSPLEAISAATINVARAYGKADQIGSVETGKLADFVLLDQDPVDDIRNLRSITEVFQAGAAVDRAALPTTPLVTAHPA
modifications: Mycobacterium brisbanense JK1
Activity (nmol DCA/μg/hour) ([4]; AS (ammonium sulfate)): 0.24 nmol DCA/μg/hour | Activity (nmol DCA/μg/hour) ([4]; CFE (cell free extract)): 0.05 nmol DCA/μg/hour | Activity (nmol DCA/μg/hour) ([4]; HIC): 0.24 nmol DCA/μg/hour | Activity (nmol DCA/μg/hour) ([4]; SEC): 0.04 nmol DCA/μg/hour | Activity (mM PNP/mg/min) ([5]; AEX): 3.9 mM PNP/mg/min | Activity (mM PNP/mg/min) ([5]; CFE): 0.1 mM PNP/mg/min | Activity (mM PNP/mg/min) ([5]; HIC): 1.4 mM PNP/mg/min | Activity (mM PNP/mg/min) ([5]; SEC): 4.3 mM PNP/mg/min | activity in the soluble fraction (in words) [6, 11]: no activity was detected | activity in the soluble fraction (in words) [6, 12]: displayed diuron hydrolase activity | residual activity after incubation (in words) [7]: retaining significant activity | Tm indicating 50% activity retained [7]: 46.0 °C | activity in the presence of methanol and acetonitrile (in words) [8]: significantly inhibited | pKe1 [9]: 5.0 | pKes1 [9]: 5.0 | pKe2 [9]: 9.6 | pKes2 [9]: 10.6 | pKe of the decrease in catalytic efficiency [9]: ~10 | βlg [10]: −1.1
